Tests used:
HeLa Kyoto [1] = assay: solubility in G1/S (NP-40 vs SDS abundance) (log2 ratio); higher = more soluble; conditions: cell cycle stage: G1/S
HeLa Kyoto [2] = assay: melting temperature (median over replicates), in situ; higher = more thermally stable
HeLa Kyoto [3] = assay: solubility change mitosis vs G1/S (difference of NP-40 vs SDS log2 ratios) (log2 ratio difference); higher = more soluble in mitosis
HeLa Kyoto [4] = assay: thermal stability score vs G1/S (z-score of summed log2 fold changes over temperatures); higher = more thermally stable than in G1/S
[5] = cell cycle stage: early G1 (4.5 h after nocodazole release)
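For melting temperature (median over replicates), in situ in this document: HeLa Kyoto cells synchronized by double thymidine or nocodazole block, proteins quantified by TMT10plex mass spectrometry, three independent biological replicates.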
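For solubility change mitosis vs G1/S (difference of NP-40 vs SDS log2 ratios) in this document: synchronized HeLa Kyoto cells (double thymidine block for G1/S, nocodazole release for mitosis), protein amounts in NP-40 versus SDS lysates quantified by mass spectrometry, three biological replicates.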
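For solubility in G1/S (NP-40 vs SDS abundance) in this document: HeLa Kyoto cells arrested at G1/S by double thymidine block, proteins quantified by TMT10plex mass spectrometry in mild NP-40 versus SDS extracts, three biological replicates.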
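For thermal stability score vs G1/S (z-score of summed log2 fold changes over temperatures) in this document: synchronized HeLa Kyoto cells, proteins quantified by TMT10plex mass spectrometry, three biological replicates, mitosis taken 0.5 h after nocodazole release, G1/S directly after double thymidine block.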

| Sequence | solubility in G1/S (log2) (HeLa Kyoto [1]) | melting temperature (HeLa Kyoto [2]; cell cycle stage: G1/S) | melting temperature (HeLa Kyoto [2]; cell cycle stage: mitosis) | solubility change mitosis (log2) (HeLa Kyoto [3]) | thermal stability score (HeLa Kyoto [4]; [5]) | thermal stability score (HeLa Kyoto [4]; cell cycle stage: mitosis) |
| --- | --- | --- | --- | --- | --- | --- |
| MEAEGSSAPARAGSGEGSDSAGGATLKAPKHLWRHEQHHQYPLRQPQFRLLHPHHHLPPPPPPSPQPQPQCPLQPPPPPPLPPPPPPPGAARGRYASSGATGRVRHRGYSDTERYLYCRAMDRTSYAVETGHRPGLKKSRMSWPSSFQGLRRFDVDNGTSAGRSPLDPMTSPGSGLILQANFVHSQRRESFLYRSDSDYDLSPKSMSRNSSIASDIHGDDLIVTPFAQVLASLRTVRNNFAALTNLQDRAPSKRSPMCNQPSINKATITEEAYQKLASETLEELDWCLDQLETLQTRHSVSEMASNKFKRMLNRELTHLSEMSRSGNQVSEFISNTFLDKQHEVEIPSPTQKEKEKKKRPMSQISGVKKLMHSSSLTNSSIPRFGVKTEQEDVLAKELEDVNKWGLHVFRIAELSGNRPLTVIMHTIFQERDLLKTFKIPVDTLITYLMTLEDHYHADVAYHNNIHAADVVQSTHVLLSTPALEAVFTDLEILAAIFASAIHDVDHPGVSNQFLINTNSELALMYNDSSVLENHHLAVGFKLLQEENCDIFQNLTKKQRQSLRKMVIDIVLATDMSKHMNLLADLKTMVETKKVTSSGVLLLDNYSDRIQVLQNMVHCADLSNPTKPLQLYRQWTDRIMEEFFRQGDRERERGMEISPMCDKHNASVEKSQVGFIDYIVHPLWETWADLVHPDAQDILDTLEDNREWYQSTIPQSPSPAPDDPEEGRQGQTEKFQFELTLEEDGESDTEKDSGSQVEEDTSCSDSKTLCTQDSESTEIPLDEQVEEEAVGEEEESQPEACVIDDRSPDT [PDE4D] | 0.0456 | 53.2 °C | 51.1 °C | -0.23 | -2.8 | -4.75 |
| MHPLQCVLQVQRSLGWGPLASVSWLSLRMCRAHSSLSSTMCPSPERQEDGARKDFSSRLAAGPTFQHFLKSASAPQEKLSSEVEDPPPYLMMDELLGRQRKVYLETYGCQMNVNDTEIAWSILQKSGYLRTSNLQEADVILLVTCSIREKAEQTIWNRLHQLKALKTRRPRSRVPLRIGILGCMAERLKEEILNREKMVDILAGPDAYRDLPRLLAVAESGQQAANVLLSLDETYADVMPVQTSASATSAFVSIMRGCDNMCSYCIVPFTRGRERSRPIASILEEVKKLSEQVFLPPRPPKVLGLQGLKEVTLLGQNVNSFRDNSEVQFNSAVPTNLSRGFTTNYKTKQGGLRFAHLLDQVSRVDPEMRIRFTSPHPKDFPDEVLQLIHERDNICKQIHLPAQSGSSRVLEAMRRGYSREAYVELVHHIRESIPGVSLSSDFIAGFCGETEEDHVQTVSLLREVQYNMGFLFAYSMRQKTRAYHRLKDDVPEEVKLRRLEELITIFREEATKANQTSVGCTQLVLVEGLSKRSATDLCGRNDGNLKVIFPDAEMEDVNNPGLRVRAQPGDYVLVKITSASSQTLRGHVLCRTTLRDSSAYC [CDK5RAP1] | -0.0387 | 50.6 °C | 51 °C | -0.0868 | 0.115 | 0.734 |
| MSASLVRATVRAVSKRKLQPTRAALTLTPSAVNKIKQLLKDKPEHVGVKVGVRTRGCNGLSYTLEYTKTKGDSDEEVIQDGVRVFIEKKAQLTLLGTEMDYVEDKLSSEFVFNNPNIKGTCGCGESFNI [ISCA1] | 0.427 | 52.3 °C | 51.9 °C | -0.0859 | -0.782 | -2.35 |
| MALLLCFVLLCGVVDFARSLSITTPEEMIEKAKGETAYLPCKFTLSPEDQGPLDIEWLISPADNQKVDQVIILYSGDKIYDDYYPDLKGRVHFTSNDLKSGDASINVTNLQLSDIGTYQCKVKKAPGVANKKIHLVVLVKPSGARCYVDGSEEIGSDFKIKCEPKEGSLPLQYEWQKLSDSQKMPTSWLAEMTSSVISVKNASSEYSGTYSCTVRNRVGSDQCLLRLNVVPPSNKAGLIAGAIIGTLLALALIGLIIFCCRKKRREEKYEKEVHHDIREDVPPPKSRTSTARSYIGSNHSSLGSMSPSNMEGYSKTQYNQVPSEDFERTPQSPTLPPAKVAAPNLSRMGAIPVMIPAQSKDGSIV [CXADR] | 0.245 | 59.4 °C | 57.6 °C | -0.112 | -1.74 | -2.2 |
| MGPGPSRAPRAPRLMLCALALMVAAGGCVVSAFNLDTRFLVVKEAGNPGSLFGYSVALHRQTERQQRYLLLAGAPRELAVPDGYTNRTGAVYLCPLTAHKDDCERMNITVKNDPGHHIIEDMWLGVTVASQGPAGRVLVCAHRYTQVLWSGSEDQRRMVGKCYVRGNDLELDSSDDWQTYHNEMCNSNTDYLETGMCQLGTSGGFTQNTVYFGAPGAYNWKGNSYMIQRKEWDLSEYSYKDPEDQGNLYIGYTMQVGSFILHPKNITIVTGAPRHRHMGAVFLLSQEAGGDLRRRQVLEGSQVGAYFGSAIALADLNNDGWQDLLVGAPYYFERKEEVGGAIYVFMNQAGTSFPAHPSLLLHGPSGSAFGLSVASIGDINQDGFQDIAVGAPFEGLGKVYIYHSSSKGLLRQPQQVIHGEKLGLPGLATFGYSLSGQMDVDENFYPDLLVGSLSDHIVLLRARPVINIVHKTLVPRPAVLDPALCTATSCVQVELCFAYNQSAGNPNYRRNITLAYTLEADRDRRPPRLRFAGSESAVFHGFFSMPEMRCQKLELLLMDNLRDKLRPIIISMNYSLPLRMPDRPRLGLRSLDAYPILNQAQALENHTEVQFQKECGPDNKCESNLQMRAAFVSEQQQKLSRLQYSRDVRKLLLSINVTNTRTSERSGEDAHEALLTLVVPPALLLSSVRPPGACQANETIFCELGNPFKRNQRMELLIAFEVIGVTLHTRDLQVQLQLSTSSHQDNLWPMILTLLVDYTLQTSLSMVNHRLQSFFGGTVMGESGMKTVEDVGSPLKYEFQVGPMGEGLVGLGTLVLGLEWPYEVSNGKWLLYPTEITVHGNGSWPCRPPGDLINPLNLTLSDPGDRPSSPQRRRRQLDPGGGQGPPPVTLAAAKKAKSETVLTCATGRAHCVWLECPIPDAPVVTNVTVKARVWNSTFIEDYRDFDRVRVNGWATLFLRTSIPTINMENKTTWFSVDIDSELVEELPAEIELWLVLVAVGAGLLLLGLIILLLWKCGFFKRARTRALYEAKRQKAEMKSQPSETERLTDDY [ITGA3] | 0.0349 | 56.8 °C | 59.2 °C | 0.0722 | -0.693 | -1.42 |
| MNGDSRAAVVTSPPPTTAPHKERYFDRVDENNPEYLRERNMAPDLRQDFNMMEQKKRVSMILQSPAFCEELESMIQEQFKKGKNPTGLLALQQIADFMTTNVPNVYPAAPQGGMAALNMSLGMVTPVNDLRGSDSIAYDKGEKLLRCKLAAFYRLADLFGWSQLIYNHITTRVNSEQEHFLIVPFGLLYSEVTASSLVKINLQGDIVDRGSTNLGVNQAGFTLHSAIYAARPDVKCVVHIHTPAGAAVSAMKCGLLPISPEALSLGEVAYHDYHGILVDEEEKVLIQKNLGPKSKVLILRNHGLVSVGESVEEAFYYIHNLVVACEIQVRTLASAGGPDNLVLLNPEKYKAKSRSPGSPVGEGTGSPPKWQIGEQEFEALMRMLDNLGYRTGYPYRYPALREKSKKYSDVEVPASVTGYSFASDGDSGTCSPLRHSFQKQQREKTRWLNSGRGDEASEEGQNGSSPKSKTKWTKEDGHRTSTSAVPNLFVPLNTNPKEVQEMRNKIREQNLQDIKTAGPQSQVLCGVVMDRSLVQGELVTASKAIIEKEYQPHVIVSTTGPNPFTTLTDRELEEYRREVERKQKGSEENLDEAREQKEKSPPDQPAVPHPPPSTPIKLEEDLVPEPTTGDDSDAATFKPTLPDLSPDEPSEALGFPMLEKEEEAHRPPSPTEAPTEASPEPAPDPAPVAEEAAPSAVEEGAAADPGSDGSPGKSPSKKKKKFRTPSFLKKSKKKSDS [ADD1] | 0.119 | 55.2 °C | 55.1 °C | 0.0666 | -4.45 | -3.29 |
| MAEAPPVSGTFKFNTDAAEFIPQEKKNSGLNCGTQRRLDSNRIGRRNYSSPPPCHLSRQVPYDEISAVHQHSYHPSGSKPKSQQTSFQSSPCNKSPKSHGLQNQPWQKLRNEKHHIRVKKAQSLAEQTSDTAGLESSTRSESGTDLREHSPSESEKEVVGADPRGAKPKKATQFVYSYGRGPKVKGKLKCEWSNRTTPKPEDAGPESTKPVGVFHPDSSEASSRKGVLDGYGARRNEQRRYPQKRPPWEVEGARPRPGRNPPKQEGHRHTNAGHRNNMGPIPKDDLNERPAKSTCDSENLAVINKSSRRVDQEKCTVRRQDPQVVSPFSRGKQNHVLKNVETHTGSLIEQLTTEKYECMVCCELVRVTAPVWSCQSCYHVFHLNCIKKWARSPASQADGQSGWRCPACQNVSAHVPNTYTCFCGKVKNPEWSRNEIPHSCGEVCRKKQPGQDCPHSCNLLCHPGPCPPCPAFMTKTCECGRTRHTVRCGQAVSVHCSNPCENILNCGQHQCAELCHGGQCQPCQIILNQVCYCGSTSRDVLCGTDVGKSDGFGDFSCLKICGKDLKCGNHTCSQVCHPQPCQQCPRLPQLVRCCPCGQTPLSQLLELGSSSRKTCMDPVPSCGKVCGKPLPCGSLDFIHTCEKLCHEGDCGPCSRTSVISCRCSFRTKELPCTSLKSEDATFMCDKRCNKKRLCGRHKCNEICCVDKEHKCPLICGRKLRCGLHRCEEPCHRGNCQTCWQASFDELTCHCGASVIYPPVPCGTRPPECTQTCARVHECDHPVYHSCHSEEKCPPCTFLTQKWCMGKHEFRSNIPCHLVDISCGLPCSATLPCGMHKCQRLCHKGECLVDEPCKQPCTTPRADCGHPCMAPCHTSSPCPVTACKAKVELQCECGRRKEMVICSEASSTYQRIAAISMASKITDMQLGGSVEISKLITKKEVHQARLECDEECSALERKKRLAEAFHISEDSDPFNIRSSGSKFSDSLKEDARKDLKFVSDVEKEMETLVEAVNKGKNSKKSHSFPPMNRDHRRIIHDLAQVYGLESVSYDSEPKRNVVVTAIRGKSVCPPTTLTGVLEREMQARPPPPIPHHRHQSDKNPGSSNLQKITKEPIIDYFDVQD [NFX1] | -0.786 | 50.5 °C | 50.3 °C | 0.35 | 1.02 | 0.0215 |
| MDREERKTINQGQEDEMEIYGYNLSRWKLAIVSLGVICSGGFLLLLLYWMPEWRVKATCVRAAIKDCEVVLLRTTDEFKMWFCAKIRVLSLETYPVSSPKSMSNKLSNGHAVCLIENPTEENRHRISKYSQTESQQIRYFTHHSVKYFWNDTIHNFDFLKGLDEGVSCTSIYEKHSAGLTKGMHAYRKLLYGVNEIAVKVPSVFKLLIKEVLNPFYIFQLFSVILWSTDEYYYYALAIVVMSIVSIVSSLYSIRKQYVMLHDMVATHSTVRVSVCRVNEEIEEIFSTDLVPGDVMVIPLNGTIMPCDAVLINGTCIVNESMLTGESVPVTKTNLPNPSVDVKGIGDELYNPETHKRHTLFCGTTVIQTRFYTGELVKAIVVRTGFSTSKGQLVRSILYPKPTDFKLYRDAYLFLLCLVAVAGIGFIYTIINSILNEVQVGVIIIESLDIITITVPPALPAAMTAGIVYAQRRLKKIGIFCISPQRINICGQLNLVCFDKTGTLTEDGLDLWGIQRVENARFLSPEENVCNEMLVKSQFVACMATCHSLTKIEGVLSGDPLDLKMFEAIGWILEEATEEETALHNRIMPTVVRPPKQLLPESTPAGNQEMELFELPATYEIGIVRQFPFSSALQRMSVVARVLGDRKMDAYMKGAPEAIAGLCKPETVPVDFQNVLEDFTKQGFRVIALAHRKLESKLTWHKVQNISRDAIENNMDFMGLIIMQNKLKQETPAVLEDLHKANIRTVMVTGDSMLTAVSVARDCGMILPQDKVIIAEALPPKDGKVAKINWHYADSLTQCSHPSAIDPEAIPVKLVHDSLEDLQMTRYHFAMNGKSFSVILEHFQDLVPKLMLHGTVFARMAPDQKTQLIEALQNVDYFVGMCGDGANDCGALKRAHGGISLSELEASVASPFTSKTPSISCVPNLIREGRAALITSFCVFKFMALYSIIQYFSVTLLYSILSNLGDFQFLFIDLAIILVVVFTMSLNPAWKELVAQRPPSGLISGALLFSVLSQIIICIGFQSLGFFWVKQQPWYEVWHPKSDACNTTGSGFWNSSHVDNETELDEHNIQNYENTTVFFISSFQYLIVAIAFSKGKPFRQPCYKNYFFVFSVIFLYIFILFIMLYPVASVDQVLQIVCVPYQWRVTMLIIVLVNAFVSITVEESVDRWGKCCLPWALGCRKKTPKAKYMYLAQELLVDPEWPPKPQTTTEAKALVKENGSCQIITIT [ATP13A3] | -0.205 | 54.3 °C | 53.9 °C | -0.0406 | -0.654 | -0.884 |
